{"source": "patent US20240218057A1", "about": "(ROCKEFELLER UNIVERSITY, published 2024)", "binders": {"B1": {"name": "C916 (antibody, V domains shown)", "VH": "EVQLVESGGGLVQPGGSLRLSCAASGFTFSNYDMHWVRQATGRGLEWVSTIGTAGDTYYPGSVKGRFTISRENAKNSLYLQMNSLRAGDTALYYCARVRYDSSGYFWSLDYWGQGTLVTVSS", "VL": "not shown"}, "B2": {"name": "C917 (antibody, V domains shown)", "VH": "B1 VH with R43K, E46D, L92V, Y100F, S102T", "VL": "not shown"}, "B3": {"name": "C951 (antibody, V domains shown)", "VH": "QVQLQESGPRLVKPSGTLSLTCAVSGGSISTTNWWSWVRQPPGKGLEWIGEIHHSGNTNYNPSLKSRVTISVDRSKNQFSLKLSSVTAADTAVYFCARDGGRPGDPFDIWGQGTMVTVSS", "VL": "QSALTQPASVSGSPGQSITISCTGTSSDVGGYNYVSWYQQHPGKAPNLMIYDVSDRPSGVSNRFSGSKSGNTASLTISGLQAEDEADYYCNSFTSNSTRVFGTGTKVTV"}, "B4": {"name": "C931 (antibody, V domains shown)", "VH": "QVQLVESGGGVVQPGRSLRLSCAASGFSFSTYGMHWVRQAPGKGLEWVAVISFDGSQKYYGDSVKGRFTISRDNPKNTLDLQMNSLRAEDTAVYYCAKVVVRGVIISLYYGMDVWGQGTTVTVSS", "VL": "not shown"}, "B5": {"name": "C929 (antibody, V domains shown)", "VH": "EVQLVESGGGLIQPGGSLRLSCAASGFTVSSNYMTWVRQAPGKGLEWVSVIYSGGTTYYADSVKGRFTISRDNSKNTLYLQMNSLRAEDTAVYYCARDLVVWGMDVWGQGTTVTVSS", "VL": "DIQLTQSPSFLSASVGDRVTITCRASQGISSYLAWYQQKPGKAPKLLIYAASTLQSGVPSRFSGSGSGTEFTLTISSLQPEDFATYYCQLLNSYPYTFGQGTKLEIK"}, "B6": {"name": "C936 (antibody, V domains shown)", "VH": "B5 VH with T35S, T56S, Y58F, V100G, V101T, W102G, G103L, M104F, V106Y, T112L", "VL": "DIQLTQSPSFLSASVGDRVTITCRASQGISSYLAWYQQKPGKAPKLLIYAASTLQSGVPSRFSGSGSGTEFTLTISSLQPEDFATYYCQQLDSYPPGTFGPGTKVDIK"}, "B7": {"name": "C937 (antibody, V domains shown)", "VH": "EVQLVESGGGLIQPGGSLRLSCAASELTVSSNYMSWVRQAPGKGLEWVSVIYPGGSTFYADSVKGRFTISRDNSKNTLYLQMNSLRAEDTAVYYCARDLGTGLFDYWGQGTLVTVSS", "VL": "B6 VL with Y87F, Q90L, D92N, Y94N"}, "B8": {"name": "C930 (antibody, V domains shown)", "VH": "B5 VH with I12F, S21A, F27I, T35S, A40P, S53A, T56S, Y58F, F67L, M82I", "VL": "B5 VL with L90Q, S93T"}, "B9": {"name": "C922 (antibody, V domains shown)", "VH": "QVQLVESGGGLVKPGGSLRLSCAGSGFTFTDYYMAWIRQAPGKGLEWVSYISTSDRFINYADSVKGRFTISRDDAKNSLYLQMNSLRAEDTAVYYCARDGGGYDRFDHWGQGTLVTVSS", "VL": "DIQMTQSPSSLSASVGDRVTITCQASQDISNLLNWYQQKAGKAPKLLIYDASNLETGVPSRFSGSGSGTDFTFTISSLQPEDIATYYCLQYDNLPLTFGQGTKLEIK"}, "B10": {"name": "C923 (antibody, V domains shown)", "VH": "QVQLVESGGGLVKPGGSLRLSCAASGFTFSDYHMTWIRQAPGKGLEWVSYISNRSTYRNYADSVKGRFTISRDNAKNSLYLQMNSLRAEDTAVYYCARDGGAYDRFDYWGQGTLVTVSS", "VL": "B9 VL with S30K, N31K, L32F, A40P, F71L, L89Q"}, "B11": {"name": "C932 (antibody, V domains shown)", "VH": "QVQLVESGGSVVQPGKSLRLSCAGSGFAFSTYGMHWVRQAPGKGLEWVAVISSDGGNKYYADSVKGRFTISRDNYENTLYLQMNSLGAEDTAVYYCAKVALRGVFISLYYGMDVWGQGTTVTVSS", "VL": "SYELTQPPSVSVTPGQTASITCSGDKLGDKYACWFLQKPGQSPLLVIYQDTKRPSGIPDRLSGSKSGNTATLTISGTQAMDEADYYCQTWDSSAVVFGGGTKLTV"}, "B12": {"name": "C913 (antibody, V domains shown)", "VH": "EVQLVESGGVVVQPGGSLRLSCAASGFTFDDYSMHWVRQVPGKGLEWIAVIFWDGTSTYYADSVKGRFTISRDNSKKSLYLQMNSLRSEDTALYYCAKDSEDCSSTSCYVDHWGQGTLVTVSS", "VL": "not shown"}, "B13": {"name": "C920 (antibody, V domains shown)", "VH": "QLQLQESGPGLVKPSETLSLTCAVSGGSISNSPFYWGWIRQPPGKGLECIGSIYYSGSTYYNPSLKSRVTISVDTSKKQFSLKLSSVTAADTAVYYCARHFADGSGRVVDSWGQGILVTVSS", "VL": "EIVLTQSPATLSLSPGERATLSCRASQSVSSYLAWYQQKPGQAPSLLIYDVSNRATGIPARFSGSGSGTDFTLTISSLEPEDFAVYYCQQRINWPLYTFGQGTKLEIK"}, "B14": {"name": "C921 (antibody, V domains shown)", "VH": "B13 VH with G37A, S56T, K77T, S85R, S111Y, I116T", "VL": "B13 VL with S30T, S31T, S45R, N53S, I92S"}, "B15": {"name": "C939 (antibody, V domains shown)", "VH": "QVQLVESGGGVVQPGRSLRLSCAASGFTFSSYAMHWVRQAPGKGLESVALISHDGSNKYHADSVKGRLTISRDTSKNTLYLQMDSLRPEDTAVYYCASGLLWFETAGGSGAPDYGMAVWGQGTTVTVSS", "VL": "DIQMTQSPSSLSASVGDRVTITCRASQSISTYLNWYQQKPGRAPKFLIYAASSLQSGVPSRFSGSGSGTDFTLIISGLQPEDFATYFCQQSYNTPLTFGGGTKVEIK"}, "B16": {"name": "C912 (antibody, V domains shown)", "VH": "QVQLVESGGGVVQPGRSLRLSCAASGFSFSTYTMHWVRQTPDKGLEWVAVISDDGKNKYYADSMKGRFTISRDNSKNTLYLQMSSLRPEDTAVYYCARDLENVMIEVALESWGQGTLVTVSS", "VL": "not shown"}, "B17": {"name": "C918 (antibody, V domains shown)", "VH": "QVQLVESGGGLVKPGGSLRLSCTASGFTFSDYYMTWLRQAPGKGLEWVSYISSTSPYTSYADSVKGRFTISRDNARNSVYLQMNSLRAEDTAIYYCARVPPPQRLHPFDVWGQGTMVTVSS", "VL": "DIQMTQSPSTLSASVGDRVTITCRASQSISSWLAWYQQKPGKAPKLLIYQASSLESGVPSRFSGSGSGTDFTLTISSLQPDDFATYYCQQYFRYSWTFGQGTKVEI"}, "B18": {"name": "C934 (antibody, V domains shown)", "VH": "QVQLVQSGAEVKKPGASVKVSCKASGYTFTDYYIHWVRQAPGQGLEWMGWINPNSGGTNYAQKFQGRVTMTRDTSISTAYMDLSRLRSDDTAVYYCARDVIITMGRGVVFRMDVWGQGTTVTVSS", "VL": "not shown"}, "B19": {"name": "C938 (antibody, V domains shown)", "VH": "QVQLVESGGGVVQPGRSLRLSCAASGFTFRSHAMHWVRQAPGKGLEWVAIISSDGFNKYYADSVKGRFTISRDNSKNTLYVHMNSLRVEDTAIYYCASGLLWFETREISGAPDYGMAVWGQGATVTVSS", "VL": "DIQMTQSPSSLSASVGDRVTITCRASQNISNFLNWYQQKPGKAPKLLIYAASSLQSGVPSRYSGSGSGTDFTLTISSLQAEDFATYYCQQSYSTPLTFGGGTKVEIK"}, "B20": {"name": "C928 (antibody, V domains shown)", "VH": "QVQLVESGGGVVQPGRSLRLSCAASGFTFSFFDMHWVRQAPGKGLEWVADISYDGSNQYYGDSVKGRFTISRDNSKSTLYLQMNSLRAEDTAVYYCAKPVDTAMFDSWGQGTLVTVSS", "VL": "SYELTQPPSVSVAPGETARITCGGNNIGHKSVHWYQQQPGQAPVLVIYYDSERPSGIPERFSGSNSGNTATLTISRVEAGDEADYHCQVWDGGNDHLVIFGGGTKLTVL"}, "B21": {"name": "C927 (antibody, V domains shown)", "VH": "QVQLVESGGGVVQPGRSLRLSCVASGFTFSYFDMHWVRQAPGKGLEWVALISHDGSTTFYGDSARGRFTISRDNSRNTLDLQMNSLRPEDTAVYFCAKPVDAAMFDFWGQGTLVTVS", "VL": "SYELTQPPSVSVAPGKTARITCGGNNIGSKSVHWYQQRPGQAPVLVIYYDSDRPSGIPERFSGSNSGNTATLTISRVEAGDEADFYCQVWDRSTNHLVVFGGGTQLTVL"}, "B22": {"name": "C926 (antibody, V domains shown)", "VH": "QVQLVESGGGVVQPGRSLRLSCAASGFGLITYSMHWVRQAPGKGLEWVGLISFDGNTTYYADSVRGRFTISRDNLANILYLQMNSLRPDDTALYYCARDKRGVIRGLLNFWGQGSLVTVSS", "VL": "DIVMTQSPDSLAVSLGERATINCKSSQSLLPSSNSNNYLAWYQQKSGQPPNLLIYWASTRESGVPDRFSGSGSETDFSLTISNLQAEDVAVYYCQQYYNTPHTFGGGTKVEI"}, "B23": {"name": "C914 (antibody, V domains shown)", "VH": "QVQLQESGPGLVKPSQTLSLTCTVSGGSITSGDYYWTWIRQPPGKGLEWIGYIYYSGNTYYNLSLRSRITISEDTSKNQFSLKLRSVTAADTAVYYCARAMITFGGVIVVLDYWGQGTLVTVSS", "VL": "QSALTQPPSASGSPGQSVTISCTGTSTDVGGYNFVSWYQQHPGKAPKLMIYEVSKRPSGVPDRFSGSKSGNTASLTVSGLQAEDEADYYCSSYAGSNILYVFGTGTKVTVL"}, "B24": {"name": "C915 (antibody, V domains shown)", "VH": "QVQLQESGPGLVKPSQTLSLTCTVSGGSISSGDYYWSWIRQPPGKGLEWIGYIYYSDSTYYNPSLRTRVTISVDTSKNQFSLKLTSVTAADTAVYYCARAMITFGGVIVLYDYWGQGTLVTVSS", "VL": "B23 VL with T27S, F34Y, S54T, D62A, N97I, I98L"}, "B25": {"name": "C911 (antibody, V domains shown)", "VH": "QVQLVESGGGVVQPGGSLRLSCAASAFTFSSYAMHWIRQSPGKGLEWVAVISSDGSSKFYADSVKGRFTISRDNSKNTLYLQMNSLSAEDTAVYYCARDLENVLIEVALQDWGQGTLVTVSS", "VL": "DIQMTQSPSSLSASVGDRVTITCRASQSINSYLNWYQQKPGKAPKLLIYAASSLHSGVPSRFSGSGSGTDFTLTISSLQPEDFATYYCQQSYTTLALTFGGGTKVEIK"}, "B26": {"name": "C924 (antibody, V domains shown)", "VH": "QVQLVESGGGVVQPGRSLRLSCAASGFTFSSYGMHWVRQAPGKGLEWVAVISDDGSNKYYADSVKGRFTISRDNSKNTLYLQMNSLRAEDTAVYYCAKSWWLSENWFDPWGQGTLVTVSS", "VL": "EIVMTQSPATLSVSPGERATLSCRASQSVSSNLAWYQQKPGQAPRLLIYGASTRATGIPARFSGTGSGTEFTLTISSLQSEDFAVYYCQQYNNWPLTFGGGTKVEIK"}, "B27": {"name": "C925 (antibody, V domains shown)", "VH": "B26 VH with S31N, M34L, I51T, S56N, N57R, N74D, S85N, A88T", "VL": "B26 VL with S30R, K39R, S52F, G64V, T65S, S76D"}}, "note": "Substitutions are numbered along the chain they refer to.", "data": [{"biological_target": "T1, SARS-COV-2 RBD (SARS-COV-2, UniProt P0DTC2 319-539)", "T1 construct": "also called WT RBD", "test": "ELISA, RBD coated on plate", "units": {"EC50": "ng/mL"}, "values": [{"binder": "B1", "EC50": 1.97}, {"binder": "B2", "EC50": 1.05}, {"binder": "B3", "EC50": 0.81}, {"binder": "B4", "EC50": 2.57}, {"binder": "B5", "EC50": 2.07}, {"binder": "B6", "EC50": 1.56}, {"binder": "B7", "EC50": 0.97}, {"binder": "B8", "EC50": 1.24}, {"binder": "B9", "EC50": 2.42}, {"binder": "B10", "EC50": 1.95}, {"binder": "B11", "EC50": 3.57}, {"binder": "B12", "EC50": 2.58}, {"binder": "B13", "EC50": 2.35}, {"binder": "B14", "EC50": 3.91}, {"binder": "B15", "EC50": 3.62}, {"binder": "B16", "EC50": 2.45}, {"binder": "B17", "EC50": 1.78}, {"binder": "B18", "EC50": 0.95}, {"binder": "B19", "EC50": 2.63}, {"binder": "B20", "EC50": 4.14}, {"binder": "B21", "EC50": 3.77}, {"binder": "B22", "EC50": 4.72}, {"binder": "B23", "EC50": 1.59}, {"binder": "B24", "EC50": 3.49}, {"binder": "B25", "EC50": 2.36}, {"binder": "B26", "EC50": 2.5}, {"binder": "B27", "EC50": 2.26}]}]}
